Measurements reported in patent publication US8394929B2, “Nogo receptor-mediated blockade of axonal growth” (Yale University, priority 2000, dated 2013).
Like-named read-outs stand apart in the source and are kept apart here. Values belong to the molecule of their own block, whether it stands above or below them.

Key:
mouse NgR = target: T1, mouse NgR (Mus musculus, UniProt Q99PI8); assay: AP-fusion protein binding to COS-7 cells expressing mouse NgR
T1 construct: expressed in transfected cells; host or cells: COS-7
T1 sequence (Q99PI8 27-473): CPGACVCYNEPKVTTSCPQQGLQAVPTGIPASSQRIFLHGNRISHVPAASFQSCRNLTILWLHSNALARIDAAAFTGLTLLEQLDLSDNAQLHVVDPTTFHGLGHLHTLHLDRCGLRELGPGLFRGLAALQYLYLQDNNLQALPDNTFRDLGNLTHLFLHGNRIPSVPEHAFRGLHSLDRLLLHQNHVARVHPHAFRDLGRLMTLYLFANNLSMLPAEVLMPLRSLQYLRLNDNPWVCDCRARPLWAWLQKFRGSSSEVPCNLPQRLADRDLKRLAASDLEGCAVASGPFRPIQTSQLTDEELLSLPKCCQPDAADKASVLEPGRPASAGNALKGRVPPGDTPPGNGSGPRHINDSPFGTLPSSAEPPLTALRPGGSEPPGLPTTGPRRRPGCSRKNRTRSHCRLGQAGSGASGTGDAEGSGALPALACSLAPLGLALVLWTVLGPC
Experimental: To determine if AP-fused deletion mutants of Nogo-66 bind mouse NgR (“mNgR”), COS-7 cells were transfected with a plasmid encoding the mouse NgR sequence ligated into pcDNA3.1. 48 hours after transfection, cells were washed with HBH (Hanks balanced salt solution containing 20 mM sodium Hepes, pH 7.05, and 1 mg ml^−1 bovine serum albumin) and then incubated with condition medium containing one of the AP-fusion proteins described above for 2 hours at 37° C. Cells were then washed, fixed, and left in HBH at 67° C. for 14-16 h to inactivate endogenous AP. AP-fusion protein binding to NgR expressing COS-7 cells was detected with the substrates NBT and BCIP (FIG. 13b).
To determine whether mNgR or mNgR deletion mutants bound to hNogo-A (1055-1120), wtNgR or mNgR deletion mutants were transfected into COS-7 cells. Forty-eight hours after the transfection, the transfected COS-7 cells were washed with hanks balanced salt solution containing 20 mM sodium HEPES, pH 7.05, and 1 mg/ml bovine serum albumin (BSA) [hereinafter “HBH”]. Cells were then incubated for 2 hours at 23° C. with a conditioned medium enriched with purified AP-hNogo-A (1055-1120) diluted in HBH. AP-fusion protein was detected as previously described for AP-Sema3A (Takahashi et al., Nature Neurosci. 1:487-493, 1998).

wild-type NgR (wtNgR) = target: T2, wild-type NgR (wtNgR) (Mus musculus, UniProt Q99PI8); assay: Growth cone collapse in E7 retinal ganglion cells infected with HSV wild-type NgR; type: cell-based
T2 construct: expressed in transfected cells; host or cells: chick E7 retinal ganglion cell explants infected with recombinant HSV
T2 sequence (Q99PI8 27-447): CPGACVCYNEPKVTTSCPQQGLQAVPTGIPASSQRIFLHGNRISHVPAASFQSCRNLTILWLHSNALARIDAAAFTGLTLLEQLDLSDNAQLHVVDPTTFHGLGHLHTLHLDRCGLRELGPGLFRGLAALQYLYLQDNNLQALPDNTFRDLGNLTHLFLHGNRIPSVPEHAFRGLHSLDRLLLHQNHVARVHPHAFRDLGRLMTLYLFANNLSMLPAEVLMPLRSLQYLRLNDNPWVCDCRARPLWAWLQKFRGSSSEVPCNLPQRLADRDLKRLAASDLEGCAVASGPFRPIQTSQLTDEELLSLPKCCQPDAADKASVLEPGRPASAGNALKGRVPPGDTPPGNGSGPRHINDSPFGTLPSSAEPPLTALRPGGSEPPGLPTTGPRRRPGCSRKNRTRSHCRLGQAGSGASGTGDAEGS
Experimental: Both dorsal root ganglion and retinal neurons from E7 chick embryos were examined. The Nogo responses in the dorsal root ganglion neurons from this developmental stage are weak but slight responses can be detected in some cultures (data not shown).
Because the mouse NgRCT domain was determined to be dispensable for hNogo-A (1055-1120) binding, the ability of NgRΔCT to mediate Nogo-dependent inhibition was examined. HSVNgR constructs transfected into HEK293T cells mediated the expression of mNgR proteins of the predicted molecular weight, as determined by SDS-PAGE and anti-Myc and anti-NgR immunoblotting (FIG. 19A). Day E7 chick retinal ganglion cells (RGCs) were grown for 12 hr, then further incubated for 24 hr with HSVNgR preparations. Explants were fixed with 4% paraformaldehyde with 0.1 M PO4 and 20% sucrose and stained with phalloidin or with anti-myc antibodies. HSVNgR protein expression was detected in axons of infected (RGC) cultures (FIG. 19B).
Growth cone collapse in response to GST-hNogo-A (1055-1120) was investigated in infected RGC cultures. Retinal explants infected with recombinant viral preparations of PlexinA1 (PlexA1), wild-type NgR (wtNgR), NgRL1 chimeric receptor in which the GPI domain has been replaced by the transmembrane region and cytoplasmic tail from the mouse adhesion protein L1 (NgRL1), or NgR carboxy terminal deletion mutant (NgRΔCT) for 12 hr. […]

B1: AP-Nogo: fusion protein of His6 tag, placental alkaline phosphatase (AP) and the 66 amino acid active domain of Nogo (protein)
chain: HHHHHHIIPVEEENPDFWNREAAEALGAAKKLQPAQTAAKNLIIFLGDGMGVSTVTAARILKGQKKDKLGPEIPLAMDRFPYVALSKTYNVDKHVPDSGATATAYLCGVKGNFQTIGLSAAARFNQCNTTRGNEVISVMNRAKKAGKSVGVVTTTRVQHASPAGTYAHTVNRNWYSDADVPASARQEGCQDIATQLISNMDIDVILGGGRKYMFRMGTPDPEYPDDYSQGGTRLDGKNLVQEWLAKRQGARYVWNRTELMQASLDPSVTHLMGLFEPGDMKYEIHRDSTLDPSLMEMTEAALRLLSRNPRGFFLFVEGGRIDHGHHESRAYRALTETIMFDDAIERAGQLTSEEDTLSLVTADHSHVFSFGGYPLRGSSIFGLAPGKARDRKAYTVLLYGNGPGYVLKDGARPDVTESESGSPEYRQQSAVPLDEETHAGEDVAVFARGPQAHLVHGVQEQTFIAHVMAFAACLEPYTACDLAPPAGTTDAAHPGRIYKGVIQAIQKSDEGHPFRAYLESEVAISEELVQKYSNSALGHVNCTIKELRRLFLVDDLVDSLK
binding to NgR expressing COS-7 cells (in words) (mouse NgR): selective binding
binding to NgR expressing COS-7 cells (in words) (mouse NgR; listed as AP-hNogo-A (1055-1120)): bound

growth cone collapse response (in words) (wild-type NgR (wtNgR); listed as GST-hNogo-A (1055-1120)): underwent growth cone collapse
growth cone collapse response (in words) (wild-type NgR (wtNgR); listed as Nogo-66): sensitive to Nogo-66-induced collapse
B2: GST-Nogo: GST fusion protein of the 66 amino acid lumenal-extracellular fragment of Nogo-A, expressed in E. coli (protein)
chain: RIYKGVIQAIQKSDEGHPFRAYLESEVAISEELVQKYSNSALGHVNCTIKELRRLFLVDDLVDSLK
modifications: also: GST fusion protein
notes: GST fusion protein of the 66 amino acid lumenal-extracellular fragment of Nogo-A, expressed in E. coli
